We go through three molecules from patent WO2020219978A1 (dated 2020).

Assay [1] addresses T1, human BCMA (hu-BCMA), as used in SPR (human, UniProt Q02223 1-54).
T1 construct: The construct used in SPR is not described; also called B cell maturation antigen; TNFRSF17
T1 sequence: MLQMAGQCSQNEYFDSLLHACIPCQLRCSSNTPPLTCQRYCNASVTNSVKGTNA
Kind of assay: SPR.

For assay [2], the target named is T2, CD3 on Jurkat cells (human, UniProt P07766 23-207).
T2 construct: also called CD3 on T cell lines
The experiment in a line: flow cytometry on Jurkat cells, second study.

Assay [3] has as its target T2, CD3 on Jurkat cells. Kind of assay: flow cytometry on Jurkat cells.
Assay [4] concerns the target T3, human cluster of differentiation 3 epsilon/delta heterodimer (CD3ed) (human, UniProt P04234 22-105).
T3 construct: also called human CD3ed heterodimer
Kind of assay: SPR (n = 3 by paragraph 97).

Assay [5] addresses T4, human BCMA on cells (NCI-H929, L363, JJN-3, RPMI-8226, U266 myeloma cell lines; HEK293T-huBCMA) (human, UniProt Q02223 1-184).
T4 construct: also called BCMA on myeloma cell lines
T4 sequence: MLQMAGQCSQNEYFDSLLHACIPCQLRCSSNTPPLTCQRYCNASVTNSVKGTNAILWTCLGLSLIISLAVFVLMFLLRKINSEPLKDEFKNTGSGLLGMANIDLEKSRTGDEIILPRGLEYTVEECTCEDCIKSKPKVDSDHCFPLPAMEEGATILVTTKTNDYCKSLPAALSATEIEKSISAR
Kind of assay: flow cytometry on NCI-H929 MM cells, 3 lots.

Assay [6] has as its target human CD3 epsilon (CD3ɛ), form of the assay not stated (human, UniProt P07766 23-126, limits assumed). The experiment in a line: not stated (description).
Assay [7] has as its target T1, human BCMA (hu-BCMA), as used in SPR. The experiment in a line: not stated (description).
In a further assay the target is T5, mouse BCMA (mouse, UniProt O88472 1-49, limits assumed).
T5 construct: also called rodent BCMA
T5 chain (looked up): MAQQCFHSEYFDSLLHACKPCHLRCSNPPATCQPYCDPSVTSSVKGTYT
The experiment in a line: SPR.

Assay [8] concerns the target T1, human BCMA (hu-BCMA), as used in SPR. Kind of assay: SPR, mean (n = 3 by paragraph 97).
The target of another assay is T6, BCMA/Fc (human, UniProt Q02223 1-54).
T6 construct: not shown: Fc part not described
T6 sequence: T1 sequence
The experiment in a line: flow cytometry blocking experiment on U266 cells; soluble BCMA/Fc against BCMA on the cells.

T2 sequence (P07766 23-207 limits assumed): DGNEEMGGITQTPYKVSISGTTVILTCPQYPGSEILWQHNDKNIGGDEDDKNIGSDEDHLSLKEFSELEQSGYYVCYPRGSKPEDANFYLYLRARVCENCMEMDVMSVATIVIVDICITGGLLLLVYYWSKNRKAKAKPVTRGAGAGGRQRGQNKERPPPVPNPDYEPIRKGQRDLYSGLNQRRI
T3 sequence (chain, as listed by the source mutant, chain 1 of 2): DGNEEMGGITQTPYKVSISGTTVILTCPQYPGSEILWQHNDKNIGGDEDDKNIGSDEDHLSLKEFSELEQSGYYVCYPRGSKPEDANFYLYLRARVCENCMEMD
T3 sequence (P04234 22-105, stated change not applied, chain 2 of 2): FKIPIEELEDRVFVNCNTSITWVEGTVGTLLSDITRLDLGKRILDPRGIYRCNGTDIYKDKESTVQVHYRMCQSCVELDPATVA
Chain of human CD3 epsilon (CD3ɛ), form of the assay not stated (P07766 23-126 limits assumed): as the sequence (chain, as listed by the source mutant, chain 1 of 2) above

B1: CC-93269, bispecific trivalent anti-BCMA/anti-CD3 T cell engaging antibody (TCE) (bispecific antibody, human IgG1, kappa, L234A L235A)
heavy 1: not shown
heavy 2: EVQLLESGGGLVQPGGSLRLSCAASGFTFSDNAMGWVRQAPGKGLEWVSAISGPGSSTYYADSVKGRFTISRDNSKNTLYLQMNSLRAEDTAVYYCAKVLGWFDYWGQGTLVTVSSASTKGPSVFPLAPSSKSTSGGTAALGCLVEDYFPEPVTVSWNSGALTSGVHTFPAVLQSSGLYSLSSVVTVPSSSLGTQTYICNVNHKPSNTKVDEKVEPKSCDKTHTCPPCPAPEAAGGPSVFLFPPKPKDTLMISRTPEVTCVVVDVSHEDPEVKFNWYVDGVEVHNAKTKPREEQYNSTYRVVSVLTVLHQDWLNGKEYKCKVSNKALGAPIEKTISKAKGQPREPQVCTLPPSRDELTKNQVSLSCAVKGFYPSDIAVEWESNGQPENNYKTTPPVLDSDGSFFLVSKLTVDKSRWQQGNVFSCSVMHEALHNHYTQKSLSLSPGK
light 1: EVQLLESGGGLVQPGGSLRLSCAASGFTFSTYAMNWVRQAPGKGLEWVSRIRSKYNNYATYYADSVKGRFTISRDDSKNTLYLQMNSLRAEDTAVYYCVRHGNFGNSYVSWFAYWGQGTLVTVSSASVAAPSVFIFPPSDEQLKSGTASVVCLLNNFYPREAKVQWKVDNALQSGNSQESVTEQDSKDSTYSLSSTLTLSKADYEKHKVYACEVTHQGLSSPVTKSFNRGEC
light 2: EIVLTQSPGTLSLSPGERATLSCRASQSVSDEYLSWYQQKPGQAPRLLIHSASTRATGIPDRFSGSGSGTDFTLAISRLEPEDFAVYYCQQYGYPPDFTFGQGTKVEIKRTVAAPSVFIFPPSDRKLKSGTASVVCLLNNFYPREAKVQWKVDNALQSGNSQESVTEQDSKDSTYSLSSTLTLSKADYEKHKVYACEVTHQGLSSPVTKSFNRGEC
Take B1: the “fold higher affinity than to rodent BCMA” value in assay [1] is roughly 10 fold. Further, the values for the EC50 (with CD3 on Jurkat cells [2]; with CD3 on Jurkat cells [3]; in assay [5]) were 121 nM, 16.8 to 37.4 nM and 1.7 to 2.8 nM, respectively. The Kd in assay [4] is 25 nM; in [6] it was 24 to 28 nM; in assay [7], roughly 0.3 nM.

B2: BCMA binder of CC-93269 (anti-BCMA IgG and Fab fragment of clone 83A10-42) (antibody, V domains shown)
VH: EVQLLESGGGLVQPGGSLRLSCAASGFTFSDNAMGWVRQAPGKGLEWVSAISGPGSSTYYADSVKGRFTISRDNSKNTLYLQMNSLRAEDTAVYYCAKVLGWFDYWGQGTLVTVSS
VL: EIVLTQSPGTLSLSPGERATLSCRASQSVSDEYLSWYQQKPGQAPRLLIHSASTRATGIPDRFSGSGSGTDFTLAISRLEPEDFAVYYCQQYGYPPDFTFGQGTKVEIK
B2: the binding result in the assay with mouse BCMA is recorded as “binds”. Besides, the Kd in assay [1] is 0.203 to 0.45 nM; in assay [8] it was 0.431 nM.

B3: phycoerythrin (PE)-conjugated BCMA binder (Clone 83A10-42) of CC-93269 (antibody, V domains shown)
VH: B2 VH
VL: B2 VL
modifications: phycoerythrin (PE)-conjugated; site not stated
notes: also called PE-conjugated 83A10-42
With B3, the binding result with BCMA/Fc is given as “binds”.
